The target of experiment [1] is T1, B-cat-Halo (beta-catenin HaloTag fusion expressed in HEK293 cells) (Homo sapiens (Human), UniProt P35222 1-781).
T1 sequence: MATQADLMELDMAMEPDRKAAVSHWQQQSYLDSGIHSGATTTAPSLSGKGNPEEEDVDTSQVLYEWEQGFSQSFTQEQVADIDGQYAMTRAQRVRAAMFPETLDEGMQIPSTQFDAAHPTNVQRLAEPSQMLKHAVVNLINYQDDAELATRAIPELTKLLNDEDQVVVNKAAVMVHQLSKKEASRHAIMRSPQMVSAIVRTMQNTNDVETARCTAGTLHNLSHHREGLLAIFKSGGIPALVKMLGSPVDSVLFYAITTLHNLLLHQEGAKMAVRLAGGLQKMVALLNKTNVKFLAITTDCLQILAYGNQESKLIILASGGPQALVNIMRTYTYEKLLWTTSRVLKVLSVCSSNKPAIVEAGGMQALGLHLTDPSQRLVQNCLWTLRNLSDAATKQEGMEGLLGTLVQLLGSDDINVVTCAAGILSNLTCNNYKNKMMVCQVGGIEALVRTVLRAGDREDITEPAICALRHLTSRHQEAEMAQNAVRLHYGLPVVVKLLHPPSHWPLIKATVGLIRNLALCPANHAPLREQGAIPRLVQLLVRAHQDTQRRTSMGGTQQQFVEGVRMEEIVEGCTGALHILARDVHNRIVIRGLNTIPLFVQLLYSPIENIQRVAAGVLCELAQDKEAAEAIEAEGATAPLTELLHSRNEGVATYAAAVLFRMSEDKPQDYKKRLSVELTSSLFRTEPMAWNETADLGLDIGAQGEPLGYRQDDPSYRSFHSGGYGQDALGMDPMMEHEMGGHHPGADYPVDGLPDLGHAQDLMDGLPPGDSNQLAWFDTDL
Nature of the experiment: cell-based or functional assay.

Experiment [2] concerns the target T2, full-length beta-Catenin (Uniprot ID P35222) (Homo sapiens (Human), UniProt P35222 2-781).
T2 construct: full-length beta-Catenin (Uniprot ID P35222); also called bCat; B-Catenin
T2 sequence: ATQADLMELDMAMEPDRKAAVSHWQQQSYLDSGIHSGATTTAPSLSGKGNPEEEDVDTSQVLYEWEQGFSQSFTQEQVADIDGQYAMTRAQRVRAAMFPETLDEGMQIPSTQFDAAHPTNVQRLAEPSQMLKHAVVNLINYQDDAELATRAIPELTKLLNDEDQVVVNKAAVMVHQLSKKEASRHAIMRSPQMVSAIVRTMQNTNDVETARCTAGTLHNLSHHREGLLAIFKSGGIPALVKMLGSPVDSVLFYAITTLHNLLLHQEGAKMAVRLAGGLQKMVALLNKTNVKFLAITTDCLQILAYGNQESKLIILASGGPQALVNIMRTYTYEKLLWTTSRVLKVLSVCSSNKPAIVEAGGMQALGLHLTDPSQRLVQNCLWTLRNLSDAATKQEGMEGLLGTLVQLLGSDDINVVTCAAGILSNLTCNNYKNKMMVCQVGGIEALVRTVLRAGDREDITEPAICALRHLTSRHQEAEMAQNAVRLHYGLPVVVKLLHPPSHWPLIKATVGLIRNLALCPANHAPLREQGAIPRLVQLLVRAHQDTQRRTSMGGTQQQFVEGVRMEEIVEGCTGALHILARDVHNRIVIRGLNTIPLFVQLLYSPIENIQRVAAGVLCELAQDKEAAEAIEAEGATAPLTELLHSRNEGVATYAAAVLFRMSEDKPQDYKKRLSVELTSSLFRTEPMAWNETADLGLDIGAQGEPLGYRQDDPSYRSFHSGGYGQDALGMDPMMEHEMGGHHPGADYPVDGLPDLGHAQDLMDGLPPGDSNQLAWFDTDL
Nature of the experiment: fluorescence polarization competition; full-length beta-catenin + 5FAM-TCF4 10-53 probe, peptide titrated. The protocol:
The plate was incubated protected from light for 60 minutes at 20° C. prior to read. Reads were performed on a CLARIOstar plate reader (BMG Labtech) in duplicate, and data were fitted to a 1:1 binding model with hill slope using an in-house script. All provided concentrations are final concentrations.
In general terms: In fluorescence polarisation assays a small probe gives low polarisation when free and higher when bound to something large.

The target in another experiment is T3, B-cat-Halo (UniProt P35222 1-781).
T3 sequence (looked up): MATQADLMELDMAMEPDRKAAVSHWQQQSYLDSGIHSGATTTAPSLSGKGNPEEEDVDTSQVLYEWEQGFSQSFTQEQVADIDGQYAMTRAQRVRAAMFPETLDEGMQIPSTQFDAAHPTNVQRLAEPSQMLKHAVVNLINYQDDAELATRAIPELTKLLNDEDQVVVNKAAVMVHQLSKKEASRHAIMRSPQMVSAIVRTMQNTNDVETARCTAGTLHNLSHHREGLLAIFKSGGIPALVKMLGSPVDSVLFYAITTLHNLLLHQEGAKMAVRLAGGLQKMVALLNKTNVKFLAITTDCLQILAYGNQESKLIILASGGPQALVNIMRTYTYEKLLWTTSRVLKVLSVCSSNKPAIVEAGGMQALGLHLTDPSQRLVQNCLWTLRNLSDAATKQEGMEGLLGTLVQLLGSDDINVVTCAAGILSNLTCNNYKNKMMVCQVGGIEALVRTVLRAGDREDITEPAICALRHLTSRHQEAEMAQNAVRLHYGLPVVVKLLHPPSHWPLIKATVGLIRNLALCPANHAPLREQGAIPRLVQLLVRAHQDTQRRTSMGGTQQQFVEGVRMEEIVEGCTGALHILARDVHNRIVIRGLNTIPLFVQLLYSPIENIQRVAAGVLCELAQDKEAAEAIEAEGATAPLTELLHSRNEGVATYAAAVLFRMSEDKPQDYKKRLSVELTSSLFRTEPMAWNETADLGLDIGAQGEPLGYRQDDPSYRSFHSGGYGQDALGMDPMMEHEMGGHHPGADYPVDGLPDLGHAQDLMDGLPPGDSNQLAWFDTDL
Nature of the experiment: cell-based or functional assay.

We go through 12 molecules from patent publication US20240116985A1 (published 2024).

Starred links: 1 amine or outer side, 2 acyl side, 3 side chain; linkers in the order of their positions; H or OH if unused. Positions of bridges follow the written chain, without caps; N, C: chain ends. Non-standard residues stand in square brackets, D forms with d. Primed or numbered codes have the meaning given here. *: point of attachment. PyrS2″ = (S)-3-amino-1-((pent-4-en-1-yloxy)carbonyl)pyrrolidine-3-carboxylic acid (stapling residue), C=CCCCOC(=O)N1CC[C@@](N[*:1])(C(=O)[*:2])C1; B5(4) = 2,2-bis(4-pentenyl)glycine = 2-amino-2-(pent-4-en-1-yl)hept-6-enoic acid (stitching residue), C=CCCCC(CCCC=C)(N[*:1])C(=O)[*:2]; B5(5) = 2,2-bis(4-pentenyl)glycine, 2-amino-2-(pent-4-en-1-yl)hept-6-enoic acid (stitching residue), C=CCCCC(CCCC=C)(N[*:1])C(=O)[*:2]; B5(33) = 2-amino-2-(pent-4-en-1-yl)hept-6-enoic acid (bis-pentenylglycine, two olefin side chains), C=CCCCC(CCCC=C)(N[*:1])C(=O)[*:2]; PyrS2 = (S)-3-amino-1-((pent-4-en-1-yloxy)carbonyl)pyrrolidine-3-carboxylic acid, C=CCCCOC(=O)N1CC[C@@](N[*:1])(C(=O)[*:2])C1; Phe(3-COOH) = N[C@@H](Cc1cccc(C(=O)O)c1)C(=O)O; Phe(2-CF3) = N[C@@H](Cc1ccccc1C(F)(F)F)C(=O)O; Phe(2-Cl) = N[C@@H](Cc1ccccc1Cl)C(=O)O; 2Nal = N[C@@H](Cc1ccc2ccccc2c1)C(=O)O; Bta = N[C@@H](Cc1csc2ccccc12)C(=O)O; Lys(iPr) = CC(C)NCCCC[C@H](N)C(=O)O; αAllylPro = C=CC[C@@]1(C(=O)O)CCCN1; tBuAla = CC(C)(C)C[C@H](N)C(=O)O; 3Thi = N[C@@H](Cc1ccsc1)C(=O)O; Cha = N[C@@H](CC1CCCCC1)C(=O)O; Ms = CS(=O)(=O)* Some results are limits rather than exact numbers.

For orientation: IC50 means the point on the concentration scale where inhibition reaches its midpoint.

In the case of Ac-[αAllylPro]D[tBuAla][B5(4)]D[Phe(3-COOH)]AAFL[PyrS2″][Phe(2-CF3)][RbMe2NapA]Q-NH2 (staple 1-4, 4-11) [I-2462], the “NanoBRET Abs IC50” value in experiment [1] stood at 4.7 µM.

B1: I-1376 (peptide)
peptide: Ac-[αAllylPro]DA[B5(4)]NT[Lys(iPr)]AFL[PyrS2″]F[Bta]Q-NH2
modifications: staple 1-4, 4-11
notes: also called Ac-PL3-Asp-Ala-B5-Asn-Thr-iPrLys-Ala-Phe-Leu-PyrS2-Phe-BztA-Gln-NH2
With B1, the IC50 in experiment [2] stood at 4.21 µM.

B2: I-1377 (peptide)
peptide: Ac-[αAllylPro]DA[B5(4)]NT[Lys(iPr)]AFL[PyrS2″]F[Bta]K-NH2
modifications: staple 1-4, 4-11
notes: also called Ac-PL3-Asp-Ala-B5-Asn-Thr-iPrLys-Ala-Phe-Leu-PyrS2-Phe-BztA-Lys-NH2
As for B2, the half-maximal inhibitory concentration (IC50) in experiment [2] worked out at 1 µM.

B3: I-1379 (peptide)
peptide: Ac-[αAllylPro]DA[B5(4)]NQ[Lys(iPr)]AFL[PyrS2″]F[Bta]Q-NH2
modifications: staple 1-4, 4-11
notes: also called Ac-PL3-Asp-Ala-B5-Asn-Gln-iPrLys-Ala-Phe-Leu-PyrS2-Phe-BztA-Gln-NH2
On to B3, for which the IC50 in experiment [2] turned out to be 1.44 µM.

B4: I-1380 (peptide)
peptide: Ac-[αAllylPro]DA[B5(4)]NK[Lys(iPr)]AFL[PyrS2″]F[Bta]Q-NH2
modifications: staple 1-4, 4-11
notes: also called Ac-PL3-Asp-Ala-B5-Asn-Lys-iPrLys-Ala-Phe-Leu-PyrS2-Phe-BztA-Gln-NH2
For the molecule B4, the IC50 in experiment [2] came to 10 µM.

B5: I-1378 (peptide)
peptide: Ac-[αAllylPro]DA[B5(4)]NT[Lys(iPr)]AFL[PyrS2″]F[Bta]T-NH2
modifications: staple 1-4, 4-11
notes: also called Ac-PL3-Asp-Ala-B5-Asn-Thr-iPrLys-Ala-Phe-Leu-PyrS2-Phe-BztA-Thr-NH2
Take B5: the IC50 in experiment [2] was 6.17 µM.

B6: I-2446 (peptide)
peptide: Ac-[αAllylPro]N[Cha][B5(5)]DQ[Lys(iPr)]AFL[PyrS2″][3Thi][Bta]Q-NH2
modifications: staple 1-4, 4-11; not fully specified; printed as Ac-PL3-Asn-Cha-B5-Asp-Gln-iPrLys-Ala-Phe-Leu-PyrS2-3Thi-BztA-Gln-NH2
On to B6, for which the “NanoBRET Abs IC50” value in experiment [1] is greater than 20 µM.

B7: I-1381 (peptide)
peptide: Ac-[αAllylPro]DA[B5(4)]NT[Lys(iPr)]AFL[PyrS2″]F[2Nal]Q-NH2
modifications: staple 1-4, 4-11
notes: also called Ac-PL3-Asp-Ala-B5-Asn-Thr-iPrLys-Ala-Phe-Leu-PyrS2-Phe-2NapA-Gln-NH2
With B7, the IC50 in experiment [2] was 10 µM.
Regarding Ac-[αAllylPro]D[tBuAla][B5(4)]D[Phe(3-COOH)]QAFL[PyrS2″][Phe(2-CF3)][RbMeBztA]A-NH2 (staple 1-4, 4-11) [I-2459], the “NanoBRET Abs IC50” value in experiment [1] came out at 15.1 µM.

B8: I-1263 (peptide)
peptide: Ac-[αAllylPro]D[tBuAla][B5(33)]DTAAFT[PyrS2]F[Bta]S-NH2
modifications: staple 1-4, 4-11 (inferred); not fully specified; printed as Ac-PL3-Asp-Npg-B5-Asp-Thr-Ala-Ala-Phe-Thr-PyrS2-Phe-BztA-Ser-NH2
Turning to B8, the “NanoBRET Abs IC50” value with B-cat-Halo came out at 20 µM.

B9: I-1258 (peptide)
peptide: Ms-[αAllylPro]D[tBuAla][B5(33)]DDAAFN[PyrS2][Phe(2-Cl)][Bta][dT]-NH2
modifications: staple 1-4, 4-11 (inferred); not fully specified; printed as MeSO2-PL3-Asp-Npg-B5-Asp-Asp-Ala-Ala-Phe-Asn-PyrS2-2C1F-BztA-dThr-NH2
As for B9, in the experiment with B-cat-Halo, the “NanoBRET Abs IC50” value is greater than 20 µM.
Regarding Ac-[αAllylPro]D[tBuAla][B5(4)]D[Phe(3-COOH)]AAFL[PyrS2″][Phe(2-CF3)][2Nal]Q-NH2 (staple 1-4, 4-11) [I-2460], in experiment [1], the “NanoBRET Abs IC50” value came to 12.8 µM.
